The source of these data is the domain aggregation screens of Martell et al. (2025).
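Further: 20 min heating vs room temperature control held 20 min.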

The data set can be described thus: soluble fraction after stress (log2 fold change); higher = more stays soluble; pooled small domains, quantitative proteomics. Conditions: stress: 75 degC.
Turning to “HMTTQTTKYVNTTAGLNVRTGPSTSYAKIVTLSYGQSVNVLSTSNGWSKINYNGSTGYVSSQYLQSTKPS”, the “soluble fraction (log2)” value was -2.28.
Take “HMTTSNPMNVTSAEAAFDNGTDRLNAFISGRTTSEERSTYFPLFVRETKEDFLRAVGRFNEYIANHG”: the “soluble fraction (log2)” value was 0.055.
As for “HMTTTAGTAVVQTGNSGKLNLREQAYSNAGILGRYSNGTIVTVLQKGSAWSYVEVQGQKGYMMSKFLRFT”, the figure is -2.75.
Under “HMTTTFGWENLVGEKGIAATDLHPSGWVTVKDQRVFVVSEGTFIEEGKEVEIMNVDGNRIVVREFKN” stands 0.216.
On to “HMTTTPTSQMVTELRSRGWTLRALAQRLGVGHASINRWANGVTPDRDLVAALRALVASGEVP”, for which the “soluble fraction (log2)” value was -0.833.
On to “HMTTTYEINDEMLKPLILEIFNKSKQRFGSTKIAPVLKREGYTASIAKVKTLMNELGIKPVNA”, for which the “soluble fraction (log2)” value is -1.07.
Turning to “HMTTTYTVPKVTGMTLEEAREDPDVVGRFTIVEGEKVTSDTVPVGQIVSQEPAAHRQVGEDGLTITVNIS”, the “soluble fraction (log2)” value was determined as 0.634.
Regarding “HMTTVKDRVYEILKREIVLGKLKPGEPINIAVLSTKLNISSAPLREALNMLSRDGLVTLNPRKHAAVSE”, the “soluble fraction (log2)” value is -1.31.
As for “HMTTVRLNATVPPELALQRLDRVARELFPEYSRNRLQQWIRSGELLVNGSPSGVRDKVPLGAELAVAANLE”, the figure is -0.657.
On to “HMTTVSINTTGIITASTIRASSALYPPLYTTVQRDAGTFSAGAIIFNSTTSKLEFYDGTTWQSLPG”, for which the “soluble fraction (log2)” value is -0.339.
As to “HMTTVTVGSKVRVKAGATFSDGAKPFAEVYNTVYDVQLLSHNGKEARIGIGDQWTGWIYISDLYLANQPAP”, the “soluble fraction (log2)” value is -1.84.
With “HMTVEMYIGKTANVLETVTENNGRIAIFGEEWQAKSLNGETIEKGAQAKIVKNDSIIMYVVPI”, the “soluble fraction (log2)” value is -0.443.
In the case of “HMTVGENTYELIKKDIIFGVLPPLKKLKLQELKKIYNASVSTLREILSRLTGDGFVFSEEQKGFYVSPV”, the “soluble fraction (log2)” value stood at 0.0263.
Under “HMTVKEVGYDTFLTMLDKKEIKQVQVEDNQIIFSDNADPVNYYKTGVFNDPDLVNRLQDAGVEFG” stands 1.01; under “HMTVKEYNRAVDEYSDAVWRFIRGNLRDEDRANDIVQDSFEKLWMHVTEIDYSVAKSWLFSTAYNNMIDI”, -0.707.
Regarding “HMTVKKLTINEDNSGRRIDNYLLSIFNSLPRSKIYNIIRKGEVRVNSSRIKPNYRLEQGDLVRIPPNLEFT”, the “soluble fraction (log2)” value stood at 0.154.
On to “HMTVKRNLVQEILRLKFRHPENFMPNRAFYQEVGINQMRWWDIFYGRKNINQEEYIALSKYF”, for which the “soluble fraction (log2)” value is -0.353.
As for “HMTVLPTEQDAKALVGLGEEEAAKIVEGNGWTYRIGSRDGEQFMLTEDFVTSRLTLGIEKAIVMTATI”, the figure is -0.906; as for “HMTVLSKEEFVAIEQRLLQLLGTAPVDNKILLQQLSGIKKEKAWKVLSFLQAENKIGMDATGRVYL”, -0.974.
As to “HMTVPDVKGMGARDAVFLLETLGFKVRINGIGQVYEQSIDPGKSYSKGEFISLRL”, the “soluble fraction (log2)” value is -0.699.
With “HMTVPNVVGQRILAAQDILKNLGLKVLVDTNLPNSQWGLRNVKSTNPGAGAVVRVGDTVTLIAR”, the “soluble fraction (log2)” value was -0.441.
As to “HMTVPTEVALELMHATALEDNEQRILYIASFKEKHREHLHATIEVDGQEVTLARYADLVATGAYL”, the “soluble fraction (log2)” value is -2.56.
As to “HMTVSADIIQKIIKTSTTDENIITIDSISNSISKLALSKITAEDIIEILEASSLVLRNSNGSWTVL”, the “soluble fraction (log2)” value is -1.7.
Regarding “HMTVSKLKVINYTIRNGDSLWTISRKFNVTVDKVKEWNGLSDRTLLQPGQKLTLYVDPTIQISH”, the “soluble fraction (log2)” value is -1.82.
Turning to “HMTVSLLQTRQRLQALADLGHYKGDLGAAWGPDAIEALKKAQATLGVTVDGKWGPQTEDAIQVALKVQ”, the “soluble fraction (log2)” value is -0.237.
As to “HMTVTISPGYEGRLLRSYLKNTLSLSTSALARLKTREDGITVNGVRVTVRYVLHAGDLLQLAVD”, the “soluble fraction (log2)” value is -0.579.
Regarding “HMTVVHRQVHLQPDQGAFRAALYSHKAVLSEQTDDQGAINLEIRLPESDFLRLLNSSGLKLQDLVP”, the “soluble fraction (log2)” value is -0.427.
Turning to “HMTVVSVDDQASASSEAIRTKVAGDSAARMSVDAGGKITWGAGSASGDVTLYRSAANTLKTDDTLVAT”, the “soluble fraction (log2)” value was 0.16.
“HMTYADTRDLLIRRGMELLTEQGIAATSIERVLQSTGIPKGSFYHYFATKHDFTLAVMDAYHHY”: the “soluble fraction (log2)” value was -0.157.
For the sequence “HMTYAQQIGARIAFLRRLKGLTLAELAERVNKHKSTISKYESGQIIIDIESLKEVADALGVDVAQIVE”, the “soluble fraction (log2)” value was -1.26.
For “HMTYFDIAPELLTVYKEINDIPRDINQIVRKTGLSINEVSYKTMILQLEDKIVELPGQRFIRNS”, the “soluble fraction (log2)” value was -2.46.
Regarding “HMTYKHLTIDEMKRFLSTREDSQSALVQFARVENVVGNRKGKYAVIKKWFLKNYKEEYNAFLS”, the “soluble fraction (log2)” value was determined as 0.0231.
Under “HMTYPGSIALVNPKHEAFVQHYVATSGSRGQAAKLAGVTTTTARNLLQDVEATARIRYLNAQQFQ” stands -0.12; under “HMTYTGTVTGVDEGGLRVRSSTSTENTSNVITKVYTGDTFDVLDTVYNGSAKWYKIGFTYNGTYTYGYVSA”, -1.51.
As to “HMTYVSVSNYIGTNVDKAKGELESQGLVVLLEEQKTEDKSQDGMVLKQTIEGGTKVSSGSRITLIYGRYT”, the “soluble fraction (log2)” value was -0.0441.
Turning to “HMVADEGELLAIAREVVAANPKVFEDWKAGKQSAAQWFVGQIMKRTRGRANPQLALKLVTQALEEHAR”, the “soluble fraction (log2)” value was determined as 0.0384.
With “HMVAEKSKIEMAIDSINKLAKELADSGVAKKTISDIIKSVSGSANYNKITDFEVATDVYKELVALKNKEDT”, the “soluble fraction (log2)” value was found to be 0.223.
As to “HMVAESGLPPAFRSTWRHIMQTRGAQLDVLAMRTGTDAASLQKQLHAMELGGWVRRMPGGWYVPLK”, the “soluble fraction (log2)” value was -1.78.
In the case of “HMVAFYATPKERGIYDDAETYREGDIVSIADGSRWIYVNPTATAGNDPADGSVYWERMSGAATGP”, the “soluble fraction (log2)” value was determined as 0.116.
As for “HMVAGHLQEKKGYFYMVLTYRDHEGKRKSKWLPTGLTIKGNKKRAQDLLQDARKNFVPDIPT”, the figure is -2.37; as for “HMVAGHLQEKNGYFYIVLNYTNHEGKRKSKWITTGLTVKGNKKRAQDLLQEARKTFVPDIPT”, -2.88.
For the sequence “HMVAPKDIVMPSFVGKKYTDVVNTPNSSYTFEFKKDEKNSSDYAVGFIMDQKPKAGETVKSNATVTLIVSK”, the “soluble fraction (log2)” value was 0.0603.
For the sequence “HMVAPNSEATTKLIIEKTKYANESPAILMGFKATATMLMAKHVVLPTSKYAYFNEGRALLEKAIK”, the “soluble fraction (log2)” value was determined as 0.154.
Under “HMVAREAYTTQNLTDVFSISRQAVEKRAKREGWQSVPRKGRGGGKLWVVSSMPAETRDLLASLLLRK” stands -0.608.
Take “HMVDALYGQGARVMRDFSEGSGIVKLDNGETWTGRLSPAASGASLYVGDRVIVTRIDGAIAEVTPP”: the “soluble fraction (log2)” value is 0.00352.
“HMVDDNFGLGEVTDQNYLTVLGRALDLIGWTDEQADSYSLKTFGVPHWDELGRSQAEKLVAHLIGLLKEQM”: the “soluble fraction (log2)” value turned out to be 0.0834.
“HMVDIEQAEFLSRQFDLLLARLDDPTIEWQDIADIRSEYTGENEHRDTIRKGSKLFYEYLQAGWIKN”: the “soluble fraction (log2)” value is -0.678.
With “HMVDISLSDRELEVLRLLAMGLSNADISRRLYLSEGTIRNYMSGIFSKLNVSDRTQAVVIALREGLVNL”, the “soluble fraction (log2)” value is -1.56.
Turning to “HMVDPAEASKRAREYLDALPADDLKDVIRQFSATLAEGSVVLGYFQRSGLKSKVVKTALEQFVASTILSK”, the “soluble fraction (log2)” value was -1.16.
Consider “HMVDPAFLAWQQKPENTWFGTDRRKTALAIAIAEEIRNDPANSNLVGAAFYARVAEETEETLN”, for which the “soluble fraction (log2)” value is -0.546.
For “HMVDPWLEQVHRASAAYATAHGSARIPTTHPDLGWKVVRVRQRHRKGLLSDEWVAKFEALPGWTWEPK”, the “soluble fraction (log2)” value is -1.52.
For the sequence “HMVDQAFQTQLKNIQARTGKNLDELYAFIRASGLVKHGEIRDLAKRELSLGHGDANTLAKFYLESLAAAA”, the “soluble fraction (log2)” value was determined as 0.0377.
For “HMVDQKLIQASAEHSGIRIDRFLSEQLPEHSRSYIQKLIKDGQVSIGGKAVKSNYKIAGTEEISLLIPDQ”, the “soluble fraction (log2)” value is -0.0516.
In the case of “HMVDTSDLPAIVEKVFADNPEQVNDILNGKDRVKGFLVGQIMKATRGQAPPDEVNKLIDATLEKMKAA”, the “soluble fraction (log2)” value was found to be 0.239.
As for “HMVDYIGRRGVMLSTVSEEKMGNAEVVIDGNSYNIYVKSLDGSTIAYHQEILIINKSKDNNYFLVQIY”, the “soluble fraction (log2)” value was -2.81.
Under “HMVEAIDQALIEKQIQAVLQENSAAVKKYQAGKTEVLAFLIGQSMRKIAKKVDANLVKNILLEQLKNK” stands 0.228.
In the case of “HMVEDFSEVLLQYIREQGGAIALNDKTDAGVIYDTFGVSKKTFKKAVGDLYKKRLIVLGDEGIRLA”, the “soluble fraction (log2)” value was -0.757.
For the sequence “HMVEIGENIKKLRKAKRMTQKEVANQLNVTPQTISKWERNISYPDLDMLVKLSQLFHISTDALL”, the “soluble fraction (log2)” value is -0.553.
As for “HMVELNDNEKIVYDILKETEKIHIDELTAKVQLTQSILSGALVQMEMKGMIVSLPGKMYKLL”, the “soluble fraction (log2)” value was -1.65.
Take “HMVELRDGSLPLARGSVGDLVAEVQRKLGVAADGIFGPQTERAVRAFQARAGLASDGIVGPLTWSALFGA”: the “soluble fraction (log2)” value is -0.516.
As for “HMVELVKVPALQGETVDEAIADIKDAGLEPGQVRYVESDLPKDTVTYQSVDAGEQVKAGTVINLQASKGP”, the figure is 0.765; as for “HMVEMSNMELVREQYFQNLIYNVGDWVKDSKTEITGEVVKRGTNYLTIVQEDFTLHKVWLEDAESME”, -0.511; as for “HMVEPDELTEREREVLQFVARGLSNKEIGAALALSPHTIKAHLRSILDKLHLRSRAEAAAWAVRSGLS”, -0.344.
Consider “HMVEPLIVRNFSINYADIDKLETKIKDYISNSDKSGVNRGRVTSDTRTNMLIVTETASKLAQVEQLLKALD”, for which the “soluble fraction (log2)” value was -0.279.
Take “HMVEPTDFTYLKAEVETAKALKQADYTVATWKSFAGELAEAEEVIAKTDASQAEVNEALSHLQAAEKELV”: the “soluble fraction (log2)” value is 0.23.
Regarding “HMVETDQESSLIQAIYKYFEITGDNTFFDEKVGEKTVADRMEWAMDYLIQNRFSEEYGLIWGA”, the “soluble fraction (log2)” value is -0.285.
As for “HMVFADRLRALRKKSGLTQDEFSKQTGIGRSAVGMYESGKREPNYTTLSKVARFYHVSTDYLLGRTDTP”, the figure is -1.52; as for “HMVFQTAAEKAYEIISKKIMKGEYEPGMRLVRRQLAQELGVSPIPILEAMKRLEQDGLIEYKAHWGSIVTI”, -2.29.
As for “HMVFRFELQPSSATPLYRQIVEQVTRAVAAGVLRDGEELPSVRAVAQEYVINPMTVSKAYSLLEAQSI”, the “soluble fraction (log2)” value was -0.366.
As for “HMVFSNLGSRGEEVRQIQTKLKELGYLQGNVDGIYGNQTKQAVTAFQRDHGLSADGIAGEKTLAALGIG”, the “soluble fraction (log2)” value amounted to 0.636.
